The values that follow come from patent US20170165365A1 (SYMPHOGEN A S, published 2017).

The target in one assay is T1, cynomolgus EGFR antigen (cynomolgus monkey, UniProt A0A2K5WK39 25-645).
T1 construct: In-house antigen; also called cynomolgus antigen
Nature of the assay: SPR (ProteOn XPR36), IgG captured by anti-human Fc, soluble monovalent antigen, 1:1 fit. How it is done:
Kinetic binding analysis of the purified humanized variants was performed on a ProteOn™ XPR36 biosensor (BioRad, USA) employing an IgG capture assay as described by Canziani et al. (Anal. Biochem. (2004) 325:301-307) that allows for measurement of antibody affinities of whole IgG molecules against soluble antigen under monovalent conditions. Briefly, approximately 5000 resonance units (RU) of a monoclonal mouse anti-human IgG Fc antibody (GE Healthcare, Denmark) was conjugated to a GLC chip surface (BioRad, USA) according to the manufacturer's instructions, followed by capture of individual antibodies of the invention or a negative control on the anti-Fc sensor surface. […] Next, 250 μl monovalent antigen (Sino Biologicals) was injected at a flow rate of 50 μl/min in serial threefold dilutions from 100 nM stock to generate response curves. The chip surface was regenerated between cycles by stripping the captured antibody/antigen complexes off the surface with a 10-second injection of 3 M MgCl₂ (GE Healthcare, Denmark) repeated three times. Finally, binding responses were fitted to a Langmuir 1:1 binding model for calculation of the on-rate (kon or ka), off-rate (koff or kd) and affinity (KD) constants using double referencing.

In another assay the target is T2, mouse HER3 antigen (mouse, UniProt Q61526 20-641, limits assumed).
T2 construct: In-house antigen coated for ELISA; also called mouse antigen; murine HER3
T2 sequence (Q61526 20-641 limits assumed): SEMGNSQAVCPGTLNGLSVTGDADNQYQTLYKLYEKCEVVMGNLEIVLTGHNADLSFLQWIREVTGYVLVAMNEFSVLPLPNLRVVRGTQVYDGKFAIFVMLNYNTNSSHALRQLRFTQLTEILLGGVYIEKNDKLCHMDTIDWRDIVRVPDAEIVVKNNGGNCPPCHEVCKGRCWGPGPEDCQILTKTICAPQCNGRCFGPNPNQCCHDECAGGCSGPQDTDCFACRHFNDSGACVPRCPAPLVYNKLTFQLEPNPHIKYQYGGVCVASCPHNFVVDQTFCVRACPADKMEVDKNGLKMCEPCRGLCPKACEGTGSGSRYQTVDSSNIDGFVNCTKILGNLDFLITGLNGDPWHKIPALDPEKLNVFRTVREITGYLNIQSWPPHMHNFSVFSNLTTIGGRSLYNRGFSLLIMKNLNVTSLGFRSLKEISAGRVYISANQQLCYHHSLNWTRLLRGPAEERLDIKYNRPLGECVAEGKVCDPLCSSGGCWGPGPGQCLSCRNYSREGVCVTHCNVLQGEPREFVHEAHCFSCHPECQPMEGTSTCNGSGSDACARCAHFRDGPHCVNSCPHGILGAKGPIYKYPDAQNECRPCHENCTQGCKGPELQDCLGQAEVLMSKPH
Nature of the assay: ELISA, coated mu HER3. The procedure: (§1) Antibody-antigen binding was measured by ELISA with coated antigens. Human antigens were obtained from Sino Biologicals. All other antigens were produced in-house by transient expression in CHO or HEK293 cells. Chimeric and humanized antibodies, as well as an isotype control antibody, were incubated with the coated antigens at different concentrations. After wash, bound antibodies were detected by HRP-(horse radish peroxidase)-conjugated secondary antibodies.

The target in assay [1] is T3, human HER3 antigen (Sino Biologicals) (human, UniProt P21860 20-643).
T3 construct: Bought soluble antigen; also called human antigen
Nature of the assay: ELISA, coated hu HER3. The procedure: as §1

In the next assay the target is T4, mouse HER2 antigen (mouse, UniProt P70424 23-653, limits assumed).
T4 construct: In-house antigen coated for ELISA; also called mouse antigen; murine HER2
T4 sequence (P70424 23-653 limits assumed): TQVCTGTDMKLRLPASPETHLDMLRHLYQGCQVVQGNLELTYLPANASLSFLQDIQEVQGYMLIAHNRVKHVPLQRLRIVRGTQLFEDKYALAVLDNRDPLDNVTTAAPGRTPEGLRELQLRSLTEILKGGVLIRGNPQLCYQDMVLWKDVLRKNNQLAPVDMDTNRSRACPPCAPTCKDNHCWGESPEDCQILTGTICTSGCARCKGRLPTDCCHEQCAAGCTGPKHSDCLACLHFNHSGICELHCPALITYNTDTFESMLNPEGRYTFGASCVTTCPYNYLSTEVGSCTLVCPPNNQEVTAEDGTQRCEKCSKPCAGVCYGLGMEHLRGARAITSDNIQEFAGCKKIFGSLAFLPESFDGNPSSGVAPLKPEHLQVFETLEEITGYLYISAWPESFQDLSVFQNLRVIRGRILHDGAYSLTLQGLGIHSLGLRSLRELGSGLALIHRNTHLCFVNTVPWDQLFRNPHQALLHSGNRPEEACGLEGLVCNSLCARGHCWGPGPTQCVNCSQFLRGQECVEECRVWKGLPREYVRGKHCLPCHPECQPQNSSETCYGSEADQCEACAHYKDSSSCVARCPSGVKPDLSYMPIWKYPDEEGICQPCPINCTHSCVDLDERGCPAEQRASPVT
The experiment in a line: ELISA, coated mu HER2. How it is done: as §1

Assay [2] concerns the target T5, human HER2 antigen (Sino Biologicals) (human, UniProt P04626 23-652).
T5 construct: Bought soluble antigen; also called human antigen
The experiment in a line: ELISA, coated hu HER2. The procedure:
as §1

For a further assay, the target named is T6, human HER4 antigen (human, UniProt Q15303 26-649, limits assumed).
T6 construct: Antigen coated for ELISA
T6 sequence (looked up): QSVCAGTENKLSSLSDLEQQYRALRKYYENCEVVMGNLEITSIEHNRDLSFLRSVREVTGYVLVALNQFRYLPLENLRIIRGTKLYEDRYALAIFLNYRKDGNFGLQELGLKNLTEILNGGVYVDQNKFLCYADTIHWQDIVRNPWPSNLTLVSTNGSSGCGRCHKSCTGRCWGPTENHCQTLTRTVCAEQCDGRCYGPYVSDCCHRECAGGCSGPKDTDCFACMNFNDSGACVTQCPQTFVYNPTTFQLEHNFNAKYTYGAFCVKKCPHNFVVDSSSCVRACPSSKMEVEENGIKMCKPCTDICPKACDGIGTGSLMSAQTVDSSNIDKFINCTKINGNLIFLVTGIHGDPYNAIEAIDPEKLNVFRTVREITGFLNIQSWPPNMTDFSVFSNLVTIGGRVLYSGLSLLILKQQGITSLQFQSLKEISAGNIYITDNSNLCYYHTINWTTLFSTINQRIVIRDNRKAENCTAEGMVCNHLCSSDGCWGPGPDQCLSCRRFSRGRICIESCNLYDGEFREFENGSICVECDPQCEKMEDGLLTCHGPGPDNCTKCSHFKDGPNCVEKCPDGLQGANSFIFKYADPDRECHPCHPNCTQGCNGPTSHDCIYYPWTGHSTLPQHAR
Nature of the assay: ELISA, coated hu HER4. How it is done:
as §1

A further assay has as its target T7, murine HER4 antigen (mouse, UniProt Q61527 26-652, limits assumed).
T7 construct: In-house antigen coated for ELISA; also called mouse HER4
T7 sequence (looked up): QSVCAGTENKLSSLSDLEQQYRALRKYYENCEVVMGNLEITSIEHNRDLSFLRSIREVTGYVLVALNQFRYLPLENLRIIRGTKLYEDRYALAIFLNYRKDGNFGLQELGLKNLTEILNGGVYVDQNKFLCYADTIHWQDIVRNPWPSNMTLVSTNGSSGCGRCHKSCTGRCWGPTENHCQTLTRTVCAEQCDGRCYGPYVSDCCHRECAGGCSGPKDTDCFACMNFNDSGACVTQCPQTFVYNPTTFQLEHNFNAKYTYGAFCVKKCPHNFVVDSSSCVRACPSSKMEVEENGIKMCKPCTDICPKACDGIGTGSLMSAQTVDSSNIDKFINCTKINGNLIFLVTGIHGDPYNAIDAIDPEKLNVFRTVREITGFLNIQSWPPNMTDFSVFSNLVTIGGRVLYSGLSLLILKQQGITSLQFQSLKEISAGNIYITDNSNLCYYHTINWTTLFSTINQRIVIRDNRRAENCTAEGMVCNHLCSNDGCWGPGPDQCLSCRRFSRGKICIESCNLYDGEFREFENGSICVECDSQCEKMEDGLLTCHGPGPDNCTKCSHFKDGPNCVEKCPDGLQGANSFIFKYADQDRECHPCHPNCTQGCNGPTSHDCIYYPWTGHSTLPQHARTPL
The experiment in a line: ELISA, coated mu HER4. The procedure: as §1

A further assay addresses T8, mouse EGFR antigen (mouse, UniProt Q01279 25-647, limits assumed).
T8 construct: In-house antigen coated for ELISA; also called mouse antigen; murine EGFR
The experiment in a line: ELISA, coated mu EGFR. How it is done: as §1

For another assay, the target named is T9, cynomolgus HER3 antigen (cynomolgus monkey, UniProt G7PIG5 20-643).
T9 construct: In-house antigen; also called cynomolgus antigen
T9 sequence (G7PIG5 entry or part of it): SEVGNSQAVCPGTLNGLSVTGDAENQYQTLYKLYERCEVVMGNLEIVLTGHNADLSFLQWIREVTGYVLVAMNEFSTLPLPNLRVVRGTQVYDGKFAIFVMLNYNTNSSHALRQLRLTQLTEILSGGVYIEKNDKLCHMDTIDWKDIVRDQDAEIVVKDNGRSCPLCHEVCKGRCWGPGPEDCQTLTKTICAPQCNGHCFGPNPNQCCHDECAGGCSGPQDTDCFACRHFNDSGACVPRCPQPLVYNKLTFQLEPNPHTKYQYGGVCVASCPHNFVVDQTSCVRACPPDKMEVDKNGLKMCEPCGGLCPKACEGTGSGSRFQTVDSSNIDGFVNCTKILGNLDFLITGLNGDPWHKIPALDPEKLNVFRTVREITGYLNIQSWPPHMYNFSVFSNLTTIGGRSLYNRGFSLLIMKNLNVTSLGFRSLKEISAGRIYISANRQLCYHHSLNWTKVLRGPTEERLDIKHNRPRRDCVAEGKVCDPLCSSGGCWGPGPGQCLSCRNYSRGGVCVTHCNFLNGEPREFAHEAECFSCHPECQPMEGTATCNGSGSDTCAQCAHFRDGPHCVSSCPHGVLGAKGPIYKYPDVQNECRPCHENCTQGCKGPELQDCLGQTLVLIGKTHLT
Nature of the assay: ELISA, coated cy HER3. How it is done:
as §1

B1: humanized anti-EGFR antibody 10560 (antibody, V domains shown)
VH: QVQLVQSGAEVKKPGASVKLSCKASGYTFTSYWMQWVRQAPGQGLEWIGNINPSNGGTSFNEEFKSRATMTRDTSTSTVYMELSSLRSEDTAVYYCARDGGLYDGYYFDFWGQGTLVTVSS
VL: AIQLTQSPSSLSASVGDRVTITCKASQDVDTAVAWYQQKPGKAPKLLIYWASTRHTGVPSRFSGSGSGTDFTLTVSSLQPEDFATYFCQQYSSYPLTFGGGTKVEIK
notes: also called 10550 (misprint in some paragraphs)
Turning to B1, the Kd with cynomolgus EGFR antigen was 3.1 nM. Further, the binding result (in the assay with mouse HER3 antigen; in [1]; in the assay with mouse HER2 antigen; in assay [2]; with human HER4 antigen; with murine HER4 antigen) was “no binding (tested: 40 nM)” in each case. Also, the binding result with mouse EGFR antigen and with cynomolgus HER3 antigen was “no binding (tested: 40 nM)” throughout.

B2: humanized anti-EGFR antibody 11302 (antibody, V domains shown)
VH: QVQLVQSGAEVKKPGASVKLSCKASGYTFTSYWMQWVRQAPGQGLEWIGNINPSNLGTSFNEEFKSRATMTRDTSTSTVYMELSSLRSEDTAVYYCARDGGLYDGYYFDFWGQGTLVTVSS
VL: AIQLTQSPSSLSASVGDRVTITCKASQDVDTAVAWYQQKPGKAPKLLIYWASTRHTGVPSRFSGSGSGTDFTLTVSSLQPEDFATYFCQQYSSYPLTFGGGTKVEIK
Consider B2, for which the affinity with cynomolgus EGFR antigen, expressed as Kd, was 1.2 nM. For the same molecule, the binding result (in the assay with mouse HER3 antigen; in assay [1]; with mouse HER2 antigen; in [2]; with human HER4 antigen; in the assay with murine HER4 antigen) was “no binding (tested: 40 nM)” in each case. Also, the binding result with mouse EGFR antigen and with cynomolgus HER3 antigen was “no binding (tested: 40 nM)” in each case.

B3: humanized anti-EGFR antibody 10292 (antibody, V domains shown)
VH: EVQLVESGGGLVQPGGSLRLSCAASGFAFSYSDMSWVRQAPGKRLEWVSYMSSAGDVTFYSDTVKGRFTISRDNAKNSLYLQVNSLRAEDTAVYYCVRHRDVAMDYWGQGTTVTVSS
VL: DIQMTQSPSSLSASVGDRATITCRSSQSLVHSNGNTYLHWYQQKPGKAPKLLIYKVSNRFSGVPSRFSGSGSGTDFTLTISSLQPEDFATYFCSQSTHVPTFGGGTKVEIK
Turning to B3, binding with cynomolgus EGFR antigen was characterised by a dissociation constant (Kd) of 0.35 nM. Besides, the binding result (with mouse HER3 antigen; in assay [1]; with mouse HER2 antigen; in [2]; with human HER4 antigen; with murine HER4 antigen) was “no binding (tested: 40 nM)” each time. In addition, the binding result with mouse EGFR antigen and with cynomolgus HER3 antigen was “no binding (tested: 40 nM)” each time.

B4: humanized anti-EGFR antibody 11294 (antibody, V domains shown)
VH: EVQLVESGGGLVQPGGSLRLSCAASGFAFSYSDMSWVRQAPGKRLEWVSYMSSAGDVTFYSDTVKGRFTISRDNAKNSLYLQVNSLRAEDTAVYYCVRHRDVAIDYWGQGTTVTVSS
VL: DVVMTQSPLSLPVTLGQPASISCRSSQSLVHSNLNTYLHWYQQRPGQSPRLLIYKVSNRFSGVPDRFSGSGSGTDFTLKISRVEAEDVGVYFCSQSTHVPTFGGGTKVEIK
B4 came in with a Kd in the assay with cynomolgus EGFR antigen of 0.56 nM. The binding result (with mouse HER3 antigen; in [1]; with mouse HER2 antigen; in assay [2]; with human HER4 antigen; with murine HER4 antigen) was “no binding (tested: 40 nM)” in each case. In addition, the binding result in the assay with mouse EGFR antigen and with cynomolgus HER3 antigen was “no binding (tested: 40 nM)” throughout.

B5: chimeric anti-EGFR antibody 1277 (antibody, V domains shown)
VH: EVQLVESGGGLVKPGESLKLSCAASGFAFSYSDMSWVRQTPEKRLEWVAYMSSAGDVTFYSDTVKGRFTISRDNAKNTLYLQVSSLKSEDTAIYYCVRHRDVAMDYWGQGTSVTVS
VL: DVVMTQTPLSLPVSLGDQASISCRSSQSLVHSNGNTYLHWYLQKPGQSPKLLIYKVSNRFSGVPDRFSGSGSGTDFTLKISRVEAEDLGVYFCSQSTHVPTFGGGTKLEIKR
notes: the light chain entry is full length
In turn, B5 came in with a Kd with cynomolgus EGFR antigen of 0.59 nM. In addition, the binding result (with mouse HER3 antigen; in assay [1]; with mouse HER2 antigen; in assay [2]; with human HER4 antigen; in the assay with murine HER4 antigen) was “no binding (tested: 40 nM)” throughout. Moreover, the binding result with mouse EGFR antigen and in the assay with cynomolgus HER3 antigen was “no binding (tested: 40 nM)” throughout.
